Assay: soluble on expression in E. coli; label from the status in PepcDB or PDB records

Sequence | soluble on expression in E. coli
MGSDKIHHHHHHPEIIVPKPHQLKWHEAEMGAVFHYDLHVFDGIRYGQGNNRISPIEDYNIFNPTQLDTDQWIQAAKAAGCKFAVLTATHETGFGLWQSDVNPYCLKAVKWRDGKGDIVRDFVNSCRKYGIQPGIYVGIRWNSLLGIHNFKVAGDGEFAANRQAWYKRFCEKMVEELCTRYGDLYMIWFDGGADDPRGDGPDVEPIVNKYQPDCLFYHNIDRADFRWGGSETGTVGYPCWSTFPAPCSHHKRIESQKDQIALLKQGDPEGKYWVPAMADSPLRGANGRHEWFWEPDDENNIYPLTTLMDMYEKSVGRNATLIIGLTPDPDGLLPAGDEQRLKEWGEEINRRFGTPLAETQGRKQRLTLNLNEKQPVNYCIIQEDIAKGERIRQYKIEAKVNGKWQTVCSGESVGHKRIAHFEPVETTALRLTVTQSVAVPEIRHFSAYNVTLK | not soluble
MGFDLDVEKKKENRNIPQANNLKIKVIGVGGAGNNAINRMIEIGIHGVEFVAVNTDLQVLEASNADVKIQIGENITRGLGAGGRPEIGEQAALESEEKIREVLQDTHMVFITAGFGGGTGTGASPVIAKIAKEMGILTVAIVTTPFYFEGPERLKKAIEGLKKLRKHVDTLIKISNNKLMEELPRDVKIKDAFLKADETLHQGVKGISELITKRGYIRLTSRFARIESVMKDAGAAILGIGVGKGEHRAREAAKKAMESKLIEHPVENASSIVFNITAPSNIRMEEVHEAAMIIRQNSSEDADVKFGLIFDDEVPDDEIRVIFIATRFPDEDKILFPEGDIPAIYRYGLEGLL | soluble
MTSQPLRVGIGGPVGSGKTALTLALCRELRERYNLAVVTNDIYTQEDAEFLVRNEALAPERIIGVETGGCPHTAIREDASINLEAVDQLNRRFPGLELILVESGGDNLSATFSPELSDLTLYVIDVSAGDKIPRKGGPGICKSDLLVINKIDLAPLVGASLDVMDRDARRMRGDKPFVFSNQKTGQGLDEIIAFIERQGLLTAA | not soluble
GPGSMRGSDAMATHASRWRPPQNPAAVRKYSNETAAPQPPAKIIMEDHSLAEVFRRSAAFQRILAYVQGCSEAVESTPNHQRLSATVDDCDDTVRYLVTDYLPRLHDIVTAIPLEDMAQQRFGNRAKRVFHARLEETVVADMEKLVRTFPTSAGRSEEAITDMATEVAAYVMDSFGNATRLDYGSGHELHFFIVIMICLEEHGDGGGSLKDEPAVLVPLEVPPPPPVPPMERAEVRKRRQDYIFYIFHEYMRLVRRLQKRYSLEPAGSHGVWGLDDYHHIPYIFGGAQLINAEVQPVKPAAGQEAMLVLPKHICDRAKVEMLKDSYLYFSMIAWILENKTGPFHEHSNMLYNISGVEHWSKIYSGMVKMFAAEVLAKYNVSQHLLFGRHLPWNTKTM | soluble
MGSDKIHHHHHHMIDLHCHILSGIDDGAQTITDSLAMAQQAVAEGIHTIVATPHHQNGKYVNERASIIHQVKQLNDELQQHEIPLKVLPGQEVRLYGGLLEDYEAGKIVTLNETNKYIFIEFPSNHVPRYTEQLFYELRVKGMIPIIVHPERNAELIERPDKLYNLVNKGALTQVTAGSLLGKFGKKIKRFSLQLVEHNLTHMIASDAHNTTSRGFHLEESYELIEKEFGTTVMNDLRENPYLIISGKAIYKEDPEQIRRKKLFGIF | not soluble
MGHHHHHHSHMNKILIAAASSGTGKTTVTLGIMHALKKRGLRVQPFKVGPDYIDTNYHQAITGVASINLDSFLIDDDAMLAALFEKHGQSADISVIEGVMGLFDGLGIDRDNSSTSFIAKCTKTPVILVVDGKAISTSAAAIVDGFNRFDPELTIAGVIINRVASENHFSLIKGAIERYTDVPVLGYLPKNAAVALPERHLGLVPKEEMTELETKWEVLGDLIAEHVDLDRLLAISKTG | not soluble
GMFASLVIPVSAQANSGEMPQEQQLAVKYMDALTEHDYKTLITFYNRDSIFFDKTANRKYTGGRFIIDFLERAHQGVLEYDFNIEHMYNAGSLVVMIGNYHFKGPGEQFGKPGKIIDVAIPAVTSLKLDMLNRRVTEHVDLIDYQTMSDQLAMQ | soluble
MAVKDNYCVIMGGGIGSRFWPFSRESHPKQFLDFFGTGRSLLQMTYDRFARFIPRENILVVTNELYVDKVREQLPEIEPDQILREPTRRNTAPCIAYASYHIYARNPKANIIVAPSDHLILREDEFVRAASEALEFVADHEHLVTLGIRPSRPETGYGYIQMAEEKTGDFIRVKTFTEKPNAEMASIFLASGEFLWNSGMFVWNVESILAAFRKHLPEVTSSLENGLAHFNTPEERRFIDQAFPYCPSISIDFGVMEKADNVLVMPVDFGWADLGTWGSLYELAQKDDAGNASLKTRTLFYEAERNIVTTDNPQKLVVVQGINDCIVAESGNVLLICRAEEEQRIKHFVADAALKYDKEYN | soluble
MGSDKIHHHHHHVALAIPQIHAHEHSDEQLMQRYAQGDSQAFEQLYLKHKGALYRYFVRQLGDKQLAEDLYQETWGRVIRAAVNYQVSAKFSTWLYRIAHNLLIDHVRAVKPVDFIASDTDVTGLDTFEGCDQDKPDIHWQEAQKSLLLKTCISLLPQVQKEAFILNIEMGFTAAMISDIAGVTLEATKSRIRYAYQSLKECVNAKWQEAGHE | not soluble
MSLSWRNRIQIFLAPDRVDLTGIARGIRPVQQFRQSGVCVQENDSRQQWKAPLRLLEQMIGQMDDRFRRGSELHITLSNHFVRYGVIAPQPSLANPDELMAYAGFQMREIYGERIDDWELSLSTWDPYGGALCAAIARDLQSELIMFARQYDTRFACIEPYLAAALDHWSKRLVEKQVWFVLVETGRFCLVVLSEGAWRCARNQRVVENLQEELLAALEQESIILSPDRSVERVYVFAPELTGQLPVHDLRWQFVRLPDEKHPAPSYFPGVTGMDDSQNH | not soluble
MAITQKRPVYLQLVDRIKNEVATDVLSANDQLPSVRETALQEKINPNTVAKAYKELEAQKVIRTIPGKGTFITGNTASVKNSNQNRLLADLSQVIAELIKSGVKGERIKKIVNDILGGKNAEN | soluble
MGSDKIHHHHHHMLLDLERFYQACNPSRPLIIGNASDRRYYIDFAAVRGGKIIEALQRTIARISPDEPTCQLFTGHLGCGKSTELLRLKAELEAQQFHVVYFESTHVLEMADVDVTDILLAIAGQVSESLEAMKIRLKSTYFTKLFGEIVDFLQTPIDLGVEAELSVGIAKITAKTKESPQLRRRLRDYLEPRTANILQSINQELLERATKELKTKGKKGLVVIVDNLDRVAIRPLPSGRSLPEYLFIQRGEQLRKLNCHVVYTIPLALTFSNDSAELQHRLGGGVAPKMLPMIPVRLRSGEIFPQGLAMLRQMVLARAFPDILPSDRLGLITEVFDSLETLDRLCLISGGHVRDLLGLLFDCLREQDPPFERECVDLVIQRQRDYRANAIDPQEWELIFQVVQQQRVRGDIEYHTLLRSLFVFEYRDHQGAWFAVNPVLAETEKFKSWLNDTHKQI | not soluble
MGSDKIHHHHHHMIDIAEETGYQYEILISTRTSDEENYYYDEIKVVSRNTRKRSEGLARAVKSATGNYAFIFEPSVRYSLTYADLIYGYINLGTSEVLVSNILGFQTDVIKNVGNWRPLTCGEDIDLMARAFDSYGVISYPMGGLTGLDIDDLIYGKWRNRIEKALAMRDLVIAANLKHNNIAEMAESMGIDLPTYEWLISGRILSYLSGIRPYEKNVNNYIFIMERIIESYISQDYRRIDTVSASPYISLSNRTRKYLSSVSDLWTEQNTDNKYPRESV | not soluble
QSVLTQPPSVSAAPGQKVTISCSGSTSNIGNNYVSWYQQHPGKAPKLMIYDVSKRPSGVPDRFSGSKSGNSASLDISGLQSEDEADYYCAAWDDSLSEFLFGTGTKLTVLGQPKAAPSVTLFPPSSEELQANKATLVCLISDFYPGAVTVAWKADSSPVKAGVETTTPSKQSNNKYAASSYLSLTPEQWKSHKSYSCQVTHEGSTVEKTVAPTECS | soluble
MGSDKIHHHHHHMISASTLNSELINKIAQDFAQATSLAVVVVNIHGDEISELFNFTPFCQLMRQHPEHSGRCRMSDRCGGLEASKKDQLCIYRCHAGLTDFSIPLVIAGHLVGFVLCGQVRLSNDVELVDILNVDDRWQDDPALVQAFRDVPEMDYSRVIASADLLKLIVENCLKKQLNFVVIKDNPSQNDPAQASRAPSPHDGKMKKALRYIDAHLSDELRLEDVAAHVYLSPYYFSKLFKKYQGIGFNAWVNQQRMASAKELLCHSDWSIASIARNLGFSQTSYFCKVFRQTYQVTPQAFRQQINAGSQTESF | not soluble
MSLSPKVAWWCRHPLTFLMEAADDLCYSIVDLEDGFHMGYLPFAAVQDKLQSIADIDLNQYEGSPAETIKRLRAKAINRLVKEVAQLFLDHEPDILAGKFDQSLVELSRFSPQLKEIETMTTNAVFHHPNVVRIKIAGFEVLGDLLTDFLTSVLEKQPRPKGKLLKFMLPPEHQIAPDEDNYSKILKVTDYIAGMTDLQATLLYQQLRGEGHHHHHH | soluble
RVARGWGGCGACGGSGIVGQGKGEPSRRRGRAAGRPQSMERGKMAEAESLETAAEHERILREIESTDTACIGPTLRSVYDGEEHGRFMEKLETRIRNHDREIEKMCNFHYQGFVDSITELLKVRGEAQKLKNQVTDTNRKLQHEGKELVIAMEELKQCRLQQRNISATVDKLMLCLPVLEMYSKLRDQMKTKRHYPALKTLEHLEHTYLPQVSHYRFCKVMVDNIPKLREEIKDVSMSDLKDFLESIRKHSDKIGETAMKQAQQQRNLDNIVLQQPRIGSKRKSKKDAYIIFDTEIESTSPKSEQDSGILDVEDEEDDEEVPGAQDLVDFSPVYRCLHIYSVLGARETFENYYRKQRRKQARLVLQPPSNMHETLDGYRKYFNQIVGFFVVEDHILHTTQGLVNRAYIDELWEMALSKTIAALRTHSSYCSDPNLVLDLKNLIVLFADTLQVYGFPVNQLFDMLLEIRDQYSETLLKKWAGIFRNILDSDNYSPIPVTSEEMYKKVVGQFPFQDIELEKQPFPKKFPFSEFVPKVYNQIKEFIYACLKFSEDLHLSSTEVDDMIRKSTNLLLTRTLSNSLQNVIKRKNIGLTELVQIIINTTHLEKSCKYLEEFITNITNVLPETVHTTKLYGTTTFKDARHAAEEEIYTNLNQKIDQFLQLADYDWMTGDLGNKASDYLVDLIAFLRSTFAVFTHLPVSGSCSYFVLYI | soluble
MSLSHVFEALSTETLPVRLGGNAAMKEKVGSDSSRWAIREVGDGNLNLVFIVTGEAGAVIVKQALPYVRLVGESWPLPLKRSFFEYHALKRQGARDPGMVPEILFFDEAQAIIVMEFLTPHIILRRALIDGRELPKIGRDLGLFVARTLFRGSDLSMVTREKKADVALFSDNVELCDITENLVFSDPYFEAKLNHHTTPQLDPIVAELRADRELKVEAQRLKHLFSAKAETLCHGDLHTGSVMVTDDETRVIDPEFAFYGPISFDVGMLIANFWMSYFSQAGHETAPGARDSMRAYLLDTIDTLWETFRAEFAALWRTERKGILYQASLFEDRQDPLAAEQALNIVIDEIWHEMLGFAGIETHRRILGLAHNADFETITDPDRRASCESKALKFGRHLAVNRQRIHSLRDIRETVERLEKEILAEGHHHHHH | soluble
MGHHHHHHSHMEDSHKSTTSETAPQPGSAVQGAHISHIAQQVSSLSESEESQDSSDSIGSSQKAHGILARRPSYRKILKDLSSEDTRGRKGDGENSGVSAAVTSMSVPTPIYQTSSGQYIAIAPNGALQLASPGTDGVQGLQTLTMTNSGSTQQGTTILQYAQTSDGQQILVPSNQVVVQTASGDMQTYQIRTTPSATSLPQTVVMTSPVTLTSQTTKTDDPQLKREIRLMKNREAARECRRKKKEYVKCLENRVAVLENQNKTLIEELKTLKDLYSNKSV | soluble
MGHHHHHHSHGSCEVLRLLDLGASPSYRRWIWQHLELIDGRPLKTHLSEYSPMERFKEFQIKSYPLQDFSSLKLPHLKKAWGLQGTSFSRKIRTSGDTLPKMLGPKIQSRPAQSIKCAMINIKPGELPKEAAVGAYVKVHTVEQGEILGLHQAFLPEGECDTRPLILMSLGNELIRIRKEIFYELIDNDDEMIKKLLKLNIAFPSDEDMCQKFLQQNSWNIFRKDLLQLLVEPCQSQLFTPNRPKKREIYNPKSVVLDLCSINKTTKPRYPIFMAPQKYLPPLRIVQAIKAPRYKIRELLA | not soluble

— the DeepSol protein solubility set
